Experiment: label from the status in PepcDB records

Sequence: MTKAPSLAFLCIQSLKIQLLESDNPIPDLYELPSELLDGIVAHLPALALQKFQTNMPFHCLDSYESGDDCCLITGRKRARNDVLGSSWKLLFKLRWPDFVDRVESPADWQQLYWEKHLQNCVDEAAEVALRPTFSGRICSINVSDNILRYICHEEHIMTCQNCVCKELSFHFQTFGPYLRCLRLLNVLCVTETSELLRTSKLRSLVLRWIRSEKHVEPLCKLLIQSRETLTSLELIHCKLSLSSISAICTSLHEKGIHTTGMQRFCIKTSSIEIDPLAAPSAFVSFLMSVRTLHSLHFGDSNLDRYFARMVFSTLLDSSSNLSSLDLSENNISGWLSTFSCKSVVGSLSSGKSLQSLCKLNLRGNELDRYDAENLAHALLHMPGLESLDLSGNPIEDSGIRSLISYFTKNPDSRLADLNLENCELSCCGVIEFLDTLSMLEKPLKFLSVADNALGSEVAEAVVNSFTISIESLNIMGIGLGPLGFLALGRKLEKVSKKLLSINISKNRGGLETARFLSKLIPLAPKLISIDASYNLMPPEALLMLCDSLRTAKGDLKRLDMTGNSCISHEADHSSLLHEFQHNGEPIFVLPSSSVSHVPYDDDP
- protein production: failed

Sequence: MALHSSSDQYGSVAVTIHWLTAVLIVIALLTGFRAAAAEDVTTEAALLRVHLPAAALVLVLTVVRVVWWLGIDDKPEPIDGAPRSQQLIAGTVHLLFYVVVFGMIASGIGMMLASGAAPAIFSRDVPALPEFWHYRPRIPHGLGARLLVLLLIAHLAAALYHHLRGDRVFRRMWFGRNPKS
- protein production: failed

Sequence: MKVITSLISSILLKFIHKDFHEIYARMSLLDRFLLLIVHGVDKMVPWHKLPVFLGLTYLEVRRHLHQQYNLLNVGQTPTGIRFDPANYPYRTADGKFNDPFNEGVGSQNSFFGRNCPPVDQKSKLRRPDPMVVATKLLGRKKFIDTGKQFNMIAASWIQFMIHDWIDHLEDTHQIELVAPKEVASKCPLSSFRFLKTKEVPTGFFEIKTGSQNIRTPWWDSSVIYGSNSKTLDRVRTYKDGKLKISEETGLLLHDEDGLAISGDIRNSWAGVSALQALFIKEHNAVCDALKDEDDDLEDEDLYRYARLVTSAVVAKIHTIDWTVQLLKTDTLLAGMRANWYGLLGKKFKDSFGHAGSSILGGVVGMKKPQNHGVPYSLTEDFTSVYRMHSLLPDQLHILDIDDVPGTNKSLPLIQEISMRDLIGRKGEETMSHIGFTKLMVSMGHQASGALELMNYPMWLRDIVPHDPNGQARPDHVDLAALEIYRDRERSVPRYNEFRRSMFMIPITKWEDLTEDEEAIEVLDDVYDGDVEELDLLVGLMAEKKIKGFAISETAFYIFLIMATRRLEADRFFTSDFNETIYTKKGLEWVNTTESLKDVIDRHYPDMTDKWMNSESAFSVWDSPPLTKNPIPLYLRIPS
- protein production: failed

Sequence: MQKKSQTAQSYHPMIKEFPEFYGPLTCPGQFLALLILEFGLNFAEIQKLKWENFNWNFKYLTIEKAGIKRVLPIREKFAIRVKAINNADELFAKSRQFLYTELKKFTNYSSKEIREQYILHQVKAGKSIYELATLLGLTTITTLEKYYRLEHHHHHH
- protein production: failed

Sequence: MGHHHHHHENLYFQSHINEQEREIEKLKRQMAEYGAIIKSLQFRQNSLEDTFIPDLTPKVEPSVNPTGCLLGSNAVHLMRDIKKECDYLGIPDPVPATKPTTQAQDDSQKKAKRSCFGRLFTGPFRRGTSAMKTADEYEKDDRLEELYAQLERDPDP
- protein production: failed

Sequence: MSLRTKGNAELILQIDAYLPDTYISDQRHKIEIYKKIRQIDNRVNYEELQEELIDRFGEYPDVVAYLLEIGLVKSYLDKVFVQRVERKDNKITIQFEKVTQRLFLAQDYFKALSVTNLKAGIAENKGLMELVFDVQNKKDYEILEGLLIFGESLLEIKESKEKNSEGHHHHHH
- protein production: not failed

Sequence: MRTPAWLGSGMPLLFVLLWSTGFLGAKFGLPYAEPFTFLAIRLLLAAALLAAFALLSGAPWPGSARLAGHVAVAGLLVHGLYLGGVFLAIEHGMSAGLTSLLVGLQPLATAALAGIWLGEQVSRRQWLGLALGLAGVALVVLGRIHGGADGLAWAAVLVALAAITCGTLYQKRFCGGMDLRTGGVVQYLASGALLGLAALLFESREVQWSTPFVLTLGWLVLGLSFGAVGLLYTLIRHGAASKVASLFYLVPPVTALASWLLFDERLAPAAIGGMLLVMLGVALVNWPGRRA
- protein production: failed
